Read-outs that look alike come from different tables or passages of the source. Non-standard residues stand in square brackets, D forms with d. Residues, ends and D or L forms follow the SMILES beside them. No end group written: not given here. Aib = CC(C)(N)C(=O)O
B1: Sequence 17 (Seq ID. 17) (peptide)
peptide: Y[Aib]EGTFISDYSIALDRLHQQDFVKWLLAQRG
B2: Sequence 11 (Seq ID. 11) (peptide)
peptide: Y[Aib]EGTFISDYSIALDRIHQEDFVKWLLAQRG
B3: Sequence 5 (Seq ID. 5) (peptide)
peptide: Y[Aib]EGTFISDYSIALDEIHQKDFVNWLLAQRG
B4: Sequence 9 (Seq ID. 9) (peptide)
peptide: Y[Aib]EGTFISDYSIALDKIHQEDFVNWLLAQRG
B5: Sequence 16 (Seq ID. 16) (peptide)
peptide: Y[Aib]EGTFISDYSIALDRLHQEDFVNWLLAQKG
B6: Sequence 6 (Seq ID. 6) (peptide)
peptide: Y[Aib]EGTFISDYSIALDELHQKDFVNWLLAQRG
B7: Peptide 5 (long-acting conjugate of GIP analog, Seq ID. 5) (peptide)
peptide: Y[Aib]EGTFISDYSIALDEIHQKDFVNWLLAQRG
modifications: also: long-acting conjugating component, site and structure not given here
B8: Sequence 15 (Seq ID. 15) (peptide)
peptide: Y[Aib]EGTFISDYSIALDRLHQEDFVKWLLAQRG
B9: Sequence 4 (Seq ID. 4) (peptide)
peptide: Y[Aib]EGTFISDYSIALDEIHQKDFVKWLLAQKG
B10: Peptide 6 (long-acting conjugate of GIP analog, Seq ID. 6) (peptide)
peptide: Y[Aib]EGTFISDYSIALDELHQKDFVNWLLAQRG
modifications: also: long-acting conjugating component, site and structure not given here
B11: Sequence 7 (Seq ID. 7) (peptide)
peptide: Y[Aib]EGTFISDYSIALDKIHQQDFVNWLLAQRG
B12: Sequence 13 (Seq ID. 13) (peptide)
peptide: Y[Aib]EGTFISDYSIALDRIHQQDFVKWLLAQRG
B13: Sequence 12 (Seq ID. 12) (peptide)
peptide: Y[Aib]EGTFISDYSIALDRIHQEDFVNWLLAQKG
B14: Sequence 3 (Seq ID. 3) (peptide)
peptide: Y[Aib]EGTFISDYSIALDKIHQEDFVKWLLAQKG
B15: Sequence 14 (Seq ID. 14) (peptide)
peptide: Y[Aib]EGTFISDYSIALDRIHQQDFVNWLLAQKG
B16: Sequence 2 (Seq ID. 2) (peptide)
peptide: Y[Aib]EGTFISDYSI[Aib]LDEIHQKDFVKWLLAQKG
B17: Sequence 10 (Seq ID. 10) (peptide)
peptide: Y[Aib]EGTFISDYSIALDKLHQEDFVNWLLAQRG
B18: Sequence 8 (Seq ID. 8) (peptide)
peptide: Y[Aib]EGTFISDYSIALDKLHQQDFVNWLLAQRG
B19: Sequence 1 (Seq ID. 1) (peptide)
peptide: Y[Aib]EGTFISDYSI[Aib]LDKIHQEDFVKWLLAQKG
B20: Sequence 18 (Seq ID. 18) (peptide)
peptide: Y[Aib]EGTFISDYSIALDRLHQQDFVNWLLAQKG

What was measured:
hGLP-1R = hGLP-1R (Homo sapiens, UniProt P43220); assay: Cell agonistic activity at GLP-1 receptor (Example 7); type: cell-based
Sequence of hGLP-1R (P43220 24-463): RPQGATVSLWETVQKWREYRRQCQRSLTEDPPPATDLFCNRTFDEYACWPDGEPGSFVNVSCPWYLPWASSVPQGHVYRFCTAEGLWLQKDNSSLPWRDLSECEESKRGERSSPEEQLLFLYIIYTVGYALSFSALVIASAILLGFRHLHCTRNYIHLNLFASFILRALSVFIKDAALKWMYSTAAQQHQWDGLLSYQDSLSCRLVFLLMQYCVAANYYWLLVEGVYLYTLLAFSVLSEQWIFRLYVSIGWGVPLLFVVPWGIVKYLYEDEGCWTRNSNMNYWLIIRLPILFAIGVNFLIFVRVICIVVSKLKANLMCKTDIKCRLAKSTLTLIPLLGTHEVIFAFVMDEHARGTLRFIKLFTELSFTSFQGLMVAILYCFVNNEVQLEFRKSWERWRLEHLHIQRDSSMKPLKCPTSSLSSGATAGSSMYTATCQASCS

[1] = biological target: T1, human GIP receptor (glucose-dependent insulinotropic peptide receptor, GIPR) (human, UniProt P48546 22-466); assay: cell-based or functional assay
T1 sequence (looked up): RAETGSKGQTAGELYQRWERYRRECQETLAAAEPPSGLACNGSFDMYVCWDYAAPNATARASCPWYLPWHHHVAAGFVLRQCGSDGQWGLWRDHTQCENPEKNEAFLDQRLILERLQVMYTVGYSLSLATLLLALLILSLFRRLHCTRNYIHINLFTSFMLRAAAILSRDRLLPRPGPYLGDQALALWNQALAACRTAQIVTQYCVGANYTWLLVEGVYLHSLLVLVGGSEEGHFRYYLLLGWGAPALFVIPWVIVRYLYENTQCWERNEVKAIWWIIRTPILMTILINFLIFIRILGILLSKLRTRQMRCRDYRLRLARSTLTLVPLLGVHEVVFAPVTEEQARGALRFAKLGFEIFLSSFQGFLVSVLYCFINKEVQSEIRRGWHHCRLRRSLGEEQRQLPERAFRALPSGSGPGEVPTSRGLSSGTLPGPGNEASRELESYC

human GLP-1 receptor [2] = biological target: T2, human GLP-1 receptor (human, UniProt P43220 24-463); assay: cell-based or functional assay
[3] = biological target: T1, human GIP receptor (glucose-dependent …); assay: cell-based or functional assay; remark: listed apart in the source
human GLP-1 receptor [4] = biological target: T2, human GLP-1 receptor; assay: cell-based or functional assay; remark: listed apart in the source

Molecule | EC50 (hGLP-1R) | EC50(pM), cell agonistic activity (cAMP, HTRF) [1] | EC50(pM), cell agonistic activity (human GLP-1 receptor [2]) | EC50(pM), cell agonistic activity (cAMP, HTRF) [3] | EC50(pM), cell agonistic activity (human GLP-1 receptor [4])
CC[C@H](C)[C@H](NC(=O)[C@H](CO)NC(=O)[C@H](Cc1ccc(O)cc1)NC(=O)[C@H](CC(=O)O)NC(=O)[C@H](CO)NC(=O)[C@@H](NC(=O)[C@H](Cc1ccccc1)NC(=O)[C@@H](NC(=O)CNC(=O)[C@H](CCC(=O)O)NC(=O)C(C)(C)NC(=O)[C@@H](N)Cc1ccc(O)cc1)[C@@H](C)O)[C@@H](C)CC)C(=O)N[C@@H](C)C(=O)N[C@@H](CC(C)C)C(=O)N[C@@H](CC(=O)O)C(=O)N[C@@H](CCCCN)C(=O)N[C@H](C(=O)N[C@@H](Cc1c[nH]cn1)C(=O)N[C@@H](CCC(N)=O)C(=O)N[C@@H](CCC(=O)O)C(=O)N[C@@H](CC(=O)O)C(=O)N[C@@H](Cc1ccccc1)C(=O)N[C@H](C(=O)N[C@@H](CCCCN)C(=O)N[C@@H](Cc1c[nH]c2ccccc12)C(=O)N[C@@H](CC(C)C)C(=O)N[C@@H](CC(C)C)C(=O)N[C@@H](C)C(=O)N[C@@H](CCC(N)=O)C(=O)N[C@@H](CCCCN)C(=O)NCC(=O)O)C(C)C)[C@@H](C)CC [Sequence 3] (H-Y[Aib]EGTFISDYSIALDKIHQEDFVKWLLAQKG-OH; N-terminus and C-terminus assumed) | > 0.1 nM | – | – | – | –
CC[C@H](C)[C@H](NC(=O)[C@H](CO)NC(=O)[C@H](Cc1ccc(O)cc1)NC(=O)[C@H](CC(=O)O)NC(=O)[C@H](CO)NC(=O)[C@@H](NC(=O)[C@H](Cc1ccccc1)NC(=O)[C@@H](NC(=O)CNC(=O)[C@H](CCC(=O)O)NC(=O)C(C)(C)NC(=O)[C@@H](N)Cc1ccc(O)cc1)[C@@H](C)O)[C@@H](C)CC)C(=O)N[C@@H](C)C(=O)N[C@@H](CC(C)C)C(=O)N[C@@H](CC(=O)O)C(=O)N[C@@H](CCCNC(=N)N)C(=O)N[C@@H](CC(C)C)C(=O)N[C@@H](Cc1c[nH]cn1)C(=O)N[C@@H](CCC(N)=O)C(=O)N[C@@H](CCC(N)=O)C(=O)N[C@@H](CC(=O)O)C(=O)N[C@@H](Cc1ccccc1)C(=O)N[C@H](C(=O)N[C@@H](CC(N)=O)C(=O)N[C@@H](Cc1c[nH]c2ccccc12)C(=O)N[C@@H](CC(C)C)C(=O)N[C@@H](CC(C)C)C(=O)N[C@@H](C)C(=O)N[C@@H](CCC(N)=O)C(=O)N[C@@H](CCCCN)C(=O)NCC(=O)O)C(C)C [Sequence 18] (H-Y[Aib]EGTFISDYSIALDRLHQQDFVNWLLAQKG-OH; N-terminus and C-terminus assumed) | > 0.1 nM | – | – | – | –
CC[C@H](C)[C@H](NC(=O)[C@H](CO)NC(=O)[C@H](Cc1ccc(O)cc1)NC(=O)[C@H](CC(=O)O)NC(=O)[C@H](CO)NC(=O)[C@@H](NC(=O)[C@H](Cc1ccccc1)NC(=O)[C@@H](NC(=O)CNC(=O)[C@H](CCC(=O)O)NC(=O)C(C)(C)NC(=O)[C@@H](N)Cc1ccc(O)cc1)[C@@H](C)O)[C@@H](C)CC)C(=O)N[C@@H](C)C(=O)N[C@@H](CC(C)C)C(=O)N[C@@H](CC(=O)O)C(=O)N[C@@H](CCCCN)C(=O)N[C@@H](CC(C)C)C(=O)N[C@@H](Cc1c[nH]cn1)C(=O)N[C@@H](CCC(N)=O)C(=O)N[C@@H](CCC(N)=O)C(=O)N[C@@H](CC(=O)O)C(=O)N[C@@H](Cc1ccccc1)C(=O)N[C@H](C(=O)N[C@@H](CC(N)=O)C(=O)N[C@@H](Cc1c[nH]c2ccccc12)C(=O)N[C@@H](CC(C)C)C(=O)N[C@@H](CC(C)C)C(=O)N[C@@H](C)C(=O)N[C@@H](CCC(N)=O)C(=O)N[C@@H](CCCNC(=N)N)C(=O)NCC(=O)O)C(C)C [Sequence 8] (H-Y[Aib]EGTFISDYSIALDKLHQQDFVNWLLAQRG-OH; N-terminus and C-terminus assumed) | > 0.1 nM | – | – | – | –
CC[C@H](C)[C@H](NC(=O)[C@H](CCC(=O)O)NC(=O)[C@H](CC(=O)O)NC(=O)[C@H](CC(C)C)NC(=O)C(C)(C)NC(=O)[C@@H](NC(=O)[C@H](CO)NC(=O)[C@H](Cc1ccc(O)cc1)NC(=O)[C@H](CC(=O)O)NC(=O)[C@H](CO)NC(=O)[C@@H](NC(=O)[C@H](Cc1ccccc1)NC(=O)[C@@H](NC(=O)CNC(=O)[C@H](CCC(=O)O)NC(=O)C(C)(C)NC(=O)[C@@H](N)Cc1ccc(O)cc1)[C@@H](C)O)[C@@H](C)CC)[C@@H](C)CC)C(=O)N[C@@H](Cc1c[nH]cn1)C(=O)N[C@@H](CCC(N)=O)C(=O)N[C@@H](CCCCN)C(=O)N[C@@H](CC(=O)O)C(=O)N[C@@H](Cc1ccccc1)C(=O)N[C@H](C(=O)N[C@@H](CCCCN)C(=O)N[C@@H](Cc1c[nH]c2ccccc12)C(=O)N[C@@H](CC(C)C)C(=O)N[C@@H](CC(C)C)C(=O)N[C@@H](C)C(=O)N[C@@H](CCC(N)=O)C(=O)N[C@@H](CCCCN)C(=O)NCC(=O)O)C(C)C [Sequence 2] (H-Y[Aib]EGTFISDYSI[Aib]LDEIHQKDFVKWLLAQKG-OH; N-terminus and C-terminus assumed) | > 0.1 nM | – | – | – | –
B1 | – | 58.2 pM | > 100 pM | – | –
B2 | – | 3.44 pM | > 100 pM | – | –
B3 | – | 6.12 pM | > 100 pM | – | –
B4 | – | 16.4 pM | > 100 pM | – | –
B5 | – | 25.5 pM | > 100 pM | – | –
B6 | – | 7.93 pM | > 100 pM | – | –
B7 | – | – | – | 27 pM | > 100 pM
B8 | – | 27.2 pM | > 100 pM | – | –
B9 | – | 2.87 pM | > 100 pM | – | –
B10 | – | – | – | 32.2 pM | > 100 pM
B11 | – | 6.04 pM | > 100 pM | – | –
B12 | – | 36.2 pM | > 100 pM | – | –
B13 | – | 0.81 pM | > 100 pM | – | –
B14 | – | 3.41 pM | > 100 pM | – | –
B15 | – | 18.4 pM | > 100 pM | – | –
B16 | – | 10.7 pM | > 100 pM | – | –
B17 | – | 1.63 pM | > 100 pM | – | –
B18 | – | 11.7 pM | > 100 pM | – | –
B19 | – | 2.38 pM | > 100 pM | – | –
B20 | – | 16.9 pM | > 100 pM | – | –

Reference: US20240239863A1, “GIP RECEPTOR AGONIST AND USE THEREOF” (HANGZHOU ZHONGMEIHUADONG PHARMACEUTICAL CO., LTD., priority 2022, published 2024)
